# Test results reported in patent publication US11214595B2, “BK channel-modulating peptides and their use” (UNIVERSITY OF SOUTH FLORIDA, priority 2016, dated 2022).
# Positions of bridges follow the written chain, without caps; N, C: chain ends. Residues, ends and D or L forms follow the SMILES beside them.
# Columns and labels:
# [1] = Blood-brain barrier crossing after application to the dural surface of the auditory midbrain; details: mouse, in vivo
# Procedure: The peptide can shuttle both itself and small molecule cargo across the blood-brain barrier of the mammalian brain. […] High dose application supports these peptides' use for suppressing audiogenic seizures, while the lower dose supports these peptides' use for reducing the effects of age-related hearing loss.
# When this compound was applied to the dura, fluorescence could be seen at ˜1200 microns in depth after 8 hours.
# [2] = target: T1, human BKα channel (ZERO isoform) (Homo sapiens, UniProt Q12791); assay: Patch-clamp recordings of human BKα channels (ZERO isoform) expressed in HEK293 cells, inside-out patches; type: cell-based
# T1 construct: expressed in transfected cells; host or cells: HEK293
# Procedure: FIGS. 6A-6H. LS3 alters the gating of human BK channels. Human BKα channels (ZERO isoform) expressed in HEK293 cells were recorded in inside-out patches. Peptide was applied by diffusion to the extracellular side. Intracellular calcium held at 750 nM. […] FIGS. 6C-6E, Bar graphs displaying the post-peptide Po relative to the starting Po across LS3 concentrations. […] FIG. 6F-6H, Bar graphs displaying the post-peptide Po relative to the starting Po for either 500 nM LS3 (cyclic) or 500 nM of the reduced form of LS3 (linear).
# FIGS. 7A-7C. LS3 alters open and closed dwell times of the human BK channel. Single human BKα channels (ZERO isoform) expressed in HEK293 cells were recorded in inside-out patches. Intracellular calcium held at 750 nM. FIGS. 7A-7C, Bar graphs showing one example of changes in open and closed dwell times before (red) and after (black) 500 nM LS3 (100 mV). Channel open dwell times shortened (FIG. 7A).
# FIGS. 11A-11C. The 9-amino acid peptides with an N- and C-terminal disulfide bond express motifs that were highly enriched in a screen for BK channel targeted peptides (FIG. 11A). […] 60 mV shown. N=6-12. Dotted line indicates baseline (FIGS. 11B and 11C).
# FIGS. 13A-1, 13A-2, 13B, 13C-1, 13C-2, 13D-1, and 13D-2. […] Single human BKα (ZERO isoform) channels expressed in HEK293 cells were recorded in inside-out patches before and after 500 nM LS10. Intracellular calcium held at 750 nM. FIGS. 13A-1 and 13A-2: open dwell times before (FIG. 13A-1) and after (FIG. 13A-2) LS10 for a representative recording at 100 mV. Single exponential fit, red line. FIG. 13B: the mean change in peak open dwell times in response to LS10. Paired Student's t-tests compared the pre- and post-peptide peak open durations, *p<0.05, N=5-6). FIGS. 13C-1 and 13C-2: closed dwell times before (FIG. 13C-1) and after (FIG. 13C-2) LS10 for a representative recording at 100 mV. […] Three component exponential fits (gray dotted-lines) and summation (red lines) also indicated. FIGS. 13D-1 and 13D-2: the mean change in peak short (FIG. 13D-1) and long (FIG. 13D-2) duration closed dwell times in response to LS10. Paired Student's t-tests compared the pre- and post-peptide peak open durations, *p<0.05, N=6.
# (§1) HEK293 cells (ATCC, Manassas, Va.) were grown according to standard procedures. Cells were cultured at 37° C. in a 5% CO2 atmosphere in Dulbecco's modified Eagle's medium with 1-glutamine, sodium pyruvate and 10% fetal bovine serum (Invitrogen). Cell lines were split with trypsin/EDTA in Hanks' balanced salt solution (Invitrogen) up to 25-30 cycles. For phage display, stable lines stably expressed rSK2 or hBKα ZERO isoform. Cells were transfected (Lipofectamine 2000, Invitrogen) with hGlyRα1 and used 48 hours later. For electrophysiological recordings, cells were transfected with the hBKα ZERO or STREX isoform. Enhanced green fluorescent protein (EGFP) was cotransfected as a marker. Electrophysiological recordings were made 16-72 h after transfection. Although the profile of BK channel composition varies from tissue to tissue, the ZERO BK channel splice variant is widely expressed, particularly in the nervous system, serving as a representative form for studying the modulation of BK channel gating.
# Voltage-clamp recordings were performed at room temperature (22-24° C.) using an inside-out configuration on patches pulled from HEK293 cells. The extracellular solution contained the following (in mM): 2 KCl, 136 KOH, 20 Hepes, 2 MgCl2, adjusted to pH 7.2 with MeSO3H. In order to apply peptide to the extracellular surface, patch electrodes (7-20 MΩ in resistance) were tip filled with normal extracellular solution and backfilled with extracellular solution containing LS3. Enough normal extracellular solution was included to provide at least five minutes of peptide-free recording (determined by plotting Po vs. time). The intracellular solution (in the bath) contained the following (in mM): 6 KCl, 132 KOH, 20 Hepes, adjusted to pH 7.2 with MeSO3H. […]
# smooth muscle = assay: Ex vivo preparations of bladder
# [3] = system: inferior colliculus neurons; details: topical 1 μL of 10 μM stock on surface of IC, 5 hours post-application, N=5 mice
# worm BK channel (SLO-1) = target: T2, worm BK channel (SLO-1) (Caenorhabditis elegans, UniProt Q95V25); assay: Inside-out patch recordings of SLO-1 channels expressed in oocytes; type: cell-based, C. elegans; details: 100 mV, intracellular calcium 5 μM
# T2 construct: expressed in transfected cells
# Procedure: (§2) FIGS. 12A, 12B-1, 12B-2, 12C, 12D, and 12E. […] FIGS. 12B-1 and 12B-2: representative three second traces at 100 mV before and after LS10 (500 nM). […] BKα channels expressed in HEK293 cells were recorded in inside-out patches. Intracellular calcium held at 750 nM. […] SLO-1 channels expressed in oocytes cells were recorded in inside-out patches. Intracellular calcium held at 5 μM.
# FIGS. 14A-1, 14A-2, and 14B. LS10 prevents the potentiation of BK channels by acute ethanol exposure. SLO-1 channels expressed in oocytes cells were recorded in inside-out patches before. Intracellular calcium held at 5 μM. FIGS. 14A-1 and 14A-2: representative three second traces at 100 mV before (upper traces) and after (lower traces) bath application of 50 mM ethanol. […] FIG. 14B: mean Po change in response to ethanol for control recordings (open bars) and in the presence of LS10 (shaded bars). Paired Student's t-tests compared the Po before and after ethanol, *p<0.05, N=5.
# [4] = target: T3, human BKα channel (STREX isoform) (Homo sapiens, UniProt Q12791); assay: Patch-clamp recordings of human BKα channels (STREX isoform) expressed in HEK293 cells, inside-out patches; type: cell-based; details: 500 nM, 100 mV, intracellular calcium 750 nM
# T3 construct: expressed in transfected cells; host or cells: HEK293
# Procedure: as §2
# as §1, with “Electrophysiological recordings were made 16-72 h after transfection. Although the profile of BK channel composition varies from tissue to tissue, the ZERO BK channel splice variant is widely expressed, particularly in the nervous system, serving as a representative form for studying the modulation of BK channel gating.” left out
# Voltage-clamp recordings were performed at room temperature (22-24° C.) using an inside-out configuration on patches pulled from HEK293 cells. […] Enough normal extracellular solution was included to provide at least five minutes of peptide-free recording (determined by plotting Po vs. time). […]
# T1 sequence (Q12791 1-1178 isoform Q12791-5): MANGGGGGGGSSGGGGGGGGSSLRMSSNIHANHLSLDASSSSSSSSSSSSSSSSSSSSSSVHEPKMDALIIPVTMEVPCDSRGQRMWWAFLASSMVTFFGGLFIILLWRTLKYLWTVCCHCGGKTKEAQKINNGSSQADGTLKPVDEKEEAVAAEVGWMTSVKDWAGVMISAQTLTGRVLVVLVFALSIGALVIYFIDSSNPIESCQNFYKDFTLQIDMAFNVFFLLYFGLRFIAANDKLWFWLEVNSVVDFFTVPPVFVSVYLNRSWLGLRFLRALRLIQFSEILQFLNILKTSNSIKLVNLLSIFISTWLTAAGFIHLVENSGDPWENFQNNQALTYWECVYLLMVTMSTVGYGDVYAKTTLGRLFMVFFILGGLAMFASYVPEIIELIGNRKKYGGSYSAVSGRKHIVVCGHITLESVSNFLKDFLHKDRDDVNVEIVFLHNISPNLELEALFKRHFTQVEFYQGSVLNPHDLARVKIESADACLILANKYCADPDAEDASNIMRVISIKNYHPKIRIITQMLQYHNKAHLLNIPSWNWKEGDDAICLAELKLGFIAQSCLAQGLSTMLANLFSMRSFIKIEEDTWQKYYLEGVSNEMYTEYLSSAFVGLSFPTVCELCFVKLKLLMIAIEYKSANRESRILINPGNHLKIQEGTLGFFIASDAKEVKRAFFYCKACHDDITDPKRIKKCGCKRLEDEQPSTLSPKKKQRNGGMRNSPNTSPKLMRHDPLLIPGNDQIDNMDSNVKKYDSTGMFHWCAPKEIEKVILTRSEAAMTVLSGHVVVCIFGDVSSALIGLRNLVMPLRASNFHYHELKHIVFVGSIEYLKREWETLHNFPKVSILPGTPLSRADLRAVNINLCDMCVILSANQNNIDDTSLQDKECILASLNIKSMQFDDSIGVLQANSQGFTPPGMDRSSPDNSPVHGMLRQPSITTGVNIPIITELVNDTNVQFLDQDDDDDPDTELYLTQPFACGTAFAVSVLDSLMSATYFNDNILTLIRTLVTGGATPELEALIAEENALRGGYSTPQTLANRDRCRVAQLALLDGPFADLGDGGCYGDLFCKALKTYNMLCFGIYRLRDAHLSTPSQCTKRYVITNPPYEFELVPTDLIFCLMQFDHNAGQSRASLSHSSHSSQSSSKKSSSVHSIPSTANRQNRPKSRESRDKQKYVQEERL
# T2 sequence (Q95V25 whole entry): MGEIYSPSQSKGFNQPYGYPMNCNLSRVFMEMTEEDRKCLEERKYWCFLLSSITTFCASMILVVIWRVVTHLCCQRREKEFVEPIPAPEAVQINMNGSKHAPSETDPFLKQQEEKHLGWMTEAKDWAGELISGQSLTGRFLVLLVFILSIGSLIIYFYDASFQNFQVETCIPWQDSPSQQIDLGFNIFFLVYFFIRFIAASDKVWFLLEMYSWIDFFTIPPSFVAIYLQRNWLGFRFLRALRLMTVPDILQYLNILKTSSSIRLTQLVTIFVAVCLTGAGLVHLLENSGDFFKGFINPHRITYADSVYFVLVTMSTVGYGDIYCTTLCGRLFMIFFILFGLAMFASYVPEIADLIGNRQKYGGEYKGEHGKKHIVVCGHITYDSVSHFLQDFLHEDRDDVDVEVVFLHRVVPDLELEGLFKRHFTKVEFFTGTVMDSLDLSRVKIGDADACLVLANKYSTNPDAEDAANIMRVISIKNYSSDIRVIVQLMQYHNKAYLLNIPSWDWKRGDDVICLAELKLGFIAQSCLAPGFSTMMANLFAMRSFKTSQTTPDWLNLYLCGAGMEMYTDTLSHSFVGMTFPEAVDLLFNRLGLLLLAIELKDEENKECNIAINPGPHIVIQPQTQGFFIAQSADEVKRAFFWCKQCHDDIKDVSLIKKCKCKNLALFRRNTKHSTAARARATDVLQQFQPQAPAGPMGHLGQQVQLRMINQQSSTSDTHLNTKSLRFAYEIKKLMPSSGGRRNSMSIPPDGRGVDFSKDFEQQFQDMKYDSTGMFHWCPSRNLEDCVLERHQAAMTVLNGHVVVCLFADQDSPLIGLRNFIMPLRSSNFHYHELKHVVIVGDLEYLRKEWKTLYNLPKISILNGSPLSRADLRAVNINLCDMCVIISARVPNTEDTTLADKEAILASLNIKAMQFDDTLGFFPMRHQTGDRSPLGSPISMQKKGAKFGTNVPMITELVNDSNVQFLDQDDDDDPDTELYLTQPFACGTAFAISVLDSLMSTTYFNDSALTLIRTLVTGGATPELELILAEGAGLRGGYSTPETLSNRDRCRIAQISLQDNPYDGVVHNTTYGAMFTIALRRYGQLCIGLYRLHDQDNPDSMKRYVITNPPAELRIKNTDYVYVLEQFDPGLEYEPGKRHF
# T3 sequence (Q12791 whole entry, canonical isoform): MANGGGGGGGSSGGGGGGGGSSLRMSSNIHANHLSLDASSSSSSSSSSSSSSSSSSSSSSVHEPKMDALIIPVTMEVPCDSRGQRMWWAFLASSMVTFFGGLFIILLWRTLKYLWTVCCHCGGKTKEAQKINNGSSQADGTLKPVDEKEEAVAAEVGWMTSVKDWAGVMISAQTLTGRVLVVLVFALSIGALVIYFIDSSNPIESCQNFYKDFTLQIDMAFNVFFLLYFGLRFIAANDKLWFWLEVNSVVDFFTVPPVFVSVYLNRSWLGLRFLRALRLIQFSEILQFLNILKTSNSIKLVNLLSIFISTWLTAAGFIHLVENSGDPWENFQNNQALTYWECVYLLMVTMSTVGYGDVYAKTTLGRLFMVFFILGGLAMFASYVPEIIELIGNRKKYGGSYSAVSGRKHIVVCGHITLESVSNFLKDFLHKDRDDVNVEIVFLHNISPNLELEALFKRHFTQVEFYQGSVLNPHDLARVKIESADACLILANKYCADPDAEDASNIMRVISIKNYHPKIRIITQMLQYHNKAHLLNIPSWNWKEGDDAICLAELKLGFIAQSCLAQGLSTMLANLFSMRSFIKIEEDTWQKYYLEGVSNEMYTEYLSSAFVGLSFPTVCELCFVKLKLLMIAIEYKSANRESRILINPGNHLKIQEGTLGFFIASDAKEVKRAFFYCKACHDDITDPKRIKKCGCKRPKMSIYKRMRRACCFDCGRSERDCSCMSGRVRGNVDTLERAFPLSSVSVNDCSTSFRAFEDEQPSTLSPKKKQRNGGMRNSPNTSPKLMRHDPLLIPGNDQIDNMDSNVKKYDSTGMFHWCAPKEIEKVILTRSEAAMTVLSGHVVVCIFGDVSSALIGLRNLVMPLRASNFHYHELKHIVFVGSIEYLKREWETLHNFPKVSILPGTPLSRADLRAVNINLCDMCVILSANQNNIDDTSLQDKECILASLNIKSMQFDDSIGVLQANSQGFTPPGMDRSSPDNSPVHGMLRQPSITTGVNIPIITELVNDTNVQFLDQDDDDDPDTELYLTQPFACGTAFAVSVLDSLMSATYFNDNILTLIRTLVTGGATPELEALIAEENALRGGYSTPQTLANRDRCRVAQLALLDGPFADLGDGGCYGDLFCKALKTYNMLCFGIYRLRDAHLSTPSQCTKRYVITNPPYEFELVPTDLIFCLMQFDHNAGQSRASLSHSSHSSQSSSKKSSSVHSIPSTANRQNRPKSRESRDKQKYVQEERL
compound,measurement,setting,value
"CC(C)[C@@H]1NC(=O)CNC(=O)[C@H](CCCNC(=N)N)NC(=O)[C@H](C)NC(=O)[C@@H](N)CSSC[C@@H](C(=O)O)NC(=O)[C@H](C(C)C)NC(=O)[C@H](CCCNC(=N)N)NC(=O)[C@H](Cc2ccc(O)cc2)NC1=O [LS1, CARGVYRVC] (H-CARGVYRVC-OH; disulfide 1-9; N-terminus and C-terminus assumed)",crossing of the blood-brain barrier,[1],able to cross the blood-brain barrier
"CC(C)C[C@@H]1NC(=O)CNC(=O)[C@H](CCCNC(=N)N)NC(=O)[C@H](CCCNC(=N)N)NC(=O)[C@@H](N)CSSC[C@@H](C(=O)O)NC(=O)[C@H](C(C)C)NC(=O)[C@H](CCC(N)=O)NC(=O)[C@H](C(C)C)NC1=O [LS3, CRRGLVQVC] (H-CRRGLVQVC-OH; disulfide 1-9; N-terminus and C-terminus assumed)",IC50,[2]; suppression of channel openings,low hundreds
same,anti-BK channel activity in smooth muscle,smooth muscle,does not show typical anti-BK channel activity in smooth muscle
same,crossing of the blood-brain barrier,[1],can cross the blood-brain barrier
CC(C)(O)[C@H]1O[C@H]2CC[C@@]3(C)[C@@](O)(CC[C@H]4Cc5c([nH]c6ccccc56)[C@@]43C)C2=CC1=O [paxilline],reduction in sound driven activity,[3],87%
CAVGRLAVC (pskan10/LS10 peptide),open dwell times / mean open times,"[2]; 500 nM peptide, single channels, intracellular calcium 750 nM, each holding voltage",shortens open dwell times
same,closed dwell times,"[2]; 500 nM peptide, three-component exponential fits, intracellular calcium 750 nM",Half of the recordings showed a lengthening in closed times
same,mean open times,"[2]; 500 nM, 60 mV",reduce mean open times
same,change in probability of opening (Po),"[2]; 500 nM, 100 mV, intracellular calcium 750 nM",little change in the probability of opening
same,change in probability of opening (Po),worm BK channel (SLO-1); 500 nM,significant reduction in the probability of opening
same,potentiation of the probability of opening (Po) by ethanol,"worm BK channel (SLO-1); 50 mM ethanol, 500 nM peptide",blocked
same,change in probability of opening (Po),[4],little change in the probability of opening
"reduced form of LS3 (linear): the reduced form of LS3 (linear), without the disulfide bridge (CRRGLVQVC; cyclised or stapled)",post-peptide Po relative to the starting Po,"[2]; 500 nM, linear vs cyclic form",did not alter Po
